Source: the Human Domainome abundance scans (Beltran et al. 2025)
± gives the uncertainty stated by the source.

B1: TOX high mobility group box family member 3, residues 256 to 323; numbered along this chain, O15405 (parent)
chain: QKPVSAYALFFRDTQAAIKGQNPNATFGEVSKIVASMWDSLGEEQKQVYKRKTEAAKKEYLKALAAYR

Variants of: B1
Experiment: abundance fitness (aPCA) (normalised: wild type 0, dead -1); higher = more abundant; growth selection in yeast, the domain comes from the species named
Conditions: Homo sapiens

Variant	abundance fitness
L41H	-0.766 ± 0.19
L41P	-0.724 ± 0.2
L41M	0.09 ± 0.079
L41Y	-0.902 ± 0.23
L41Q	-0.718 ± 0.2
L41A	-0.225 ± 0.068
L41T	-0.298 ± 0.13
E44F	-0.541 ± 0.061
E44S	-0.101 ± 0.05
E44V	-0.209 ± 0.046
E44C	0.023 ± 0.18
E44R	-0.359 ± 0.07
E44N	-0.11 ± 0.13
E44W	-0.515 ± 0.073
E44A	-0.116 ± 0.051
A63W	-0.178 ± 0.05
A63Y	-0.167 ± 0.068
K52D	-0.404 ± 0.078
K52E	-0.219 ± 0.07
K52I	-0.652 ± 0.081
K52F	-0.93 ± 0.17
K52N	-0.133 ± 0.067
K52V	-0.584 ± 0.072
S31N	-0.213 ± 0.16

Variant	abundance fitness
S31K	0.116 ± 0.084
S31T	-0.118 ± 0.08
S31D	-0.105 ± 0.27
S31I	-0.583 ± 0.15
S31F	-0.664 ± 0.12
E54V	-0.239 ± 0.053
E54R	-0.203 ± 0.048
E54L	-0.102 ± 0.045
E54S	-0.211 ± 0.052
E54T	-0.237 ± 0.064
E54M	-0.161 ± 0.064
E54W	-0.331 ± 0.067
E54F	-0.193 ± 0.072
E54Q	-0.158 ± 0.07
E54G	-0.328 ± 0.046
M37L	-0.219 ± 0.047
M37D	-0.488 ± 0.16
I18F	-0.746 ± 0.16
I18A	-0.607 ± 0.13
I18E	-0.837 ± 0.19
F10G	-0.957 ± 0.14
F10Q	-0.71 ± 0.19
F10E	-0.635 ± 0.12
L64T	0.236 ± 0.056

Variant	abundance fitness
L64I	0.146 ± 0.1
L64P	0.33 ± 0.071
L64N	0.173 ± 0.1
T26R	-0.266 ± 0.049
T26S	0.051 ± 0.055
T26C	-0.275 ± 0.064
T26Q	-0.217 ± 0.071
T26V	-0.845 ± 0.11
I33Y	-0.174 ± 0.11
I33F	-0.5 ± 0.25
I33R	-0.134 ± 0.054
I33V	-0.159 ± 0.052
G20T	0.038 ± 0.086
G20K	-0.129 ± 0.11
G20Q	0.224 ± 0.066
G20M	-0.222 ± 0.18
G20E	0.085 ± 0.16
G20V	0.039 ± 0.05
G20I	-0.01 ± 0.099
G20A	0.129 ± 0.051
A8T	-0.196 ± 0.11
A8I	-0.477 ± 0.19
A8V	-0.123 ± 0.056
Q21L	-0.219 ± 0.056

Variant	abundance fitness
Q21D	-0.126 ± 0.092
Q21S	-0.029 ± 0.038
Y7V	-0.651 ± 0.13
Y7G	-0.33 ± 0.07
Y7I	-0.48 ± 0.14
Y7R	-0.244 ± 0.042
Y7A	-0.498 ± 0.14
Y7H	-0.199 ± 0.14
K62S	-0.092 ± 0.043
K62D	0.019 ± 0.078
K62G	-0.133 ± 0.05
K62A	-0.022 ± 0.062
K62P	-0.142 ± 0.05
A65S	0.042 ± 0.069
A65Q	0.004 ± 0.097
A65W	-0.082 ± 0.079
A65R	-0.037 ± 0.059
A65Y	-0.48 ± 0.38
A65F	-0.111 ± 0.11
P23F	-1.16 ± 0.26
P23C	-0.627 ± 0.21
E29K	-0.534 ± 0.15
E29N	-0.543 ± 0.12
E29P	-0.802 ± 0.18

Variant	abundance fitness
E29A	-0.326 ± 0.09
E29G	-0.959 ± 0.22
V30R	-0.43 ± 0.062
V30Y	-0.811 ± 0.17
V30E	-0.453 ± 0.1
V30L	-0.119 ± 0.051
V30W	-0.319 ± 0.074
G42K	-0.037 ± 0.077
G42W	-0.858 ± 0.14
G42D	0.067 ± 0.085
G42Q	-0.153 ± 0.09
G42C	0.04 ± 0.085
G42A	-0.088 ± 0.052
T14G	-0.709 ± 0.11
T14W	-0.364 ± 0.067
T14Q	0.146 ± 0.096
N24K	0.016 ± 0.058
N24L	-0.304 ± 0.049
N24I	-0.879 ± 0.27
N24C	-0.331 ± 0.086
N24P	-0.848 ± 0.14
A35Q	-0.01 ± 0.071
A35K	-0.024 ± 0.13
A35R	0.12 ± 0.048

Variant	abundance fitness
A35C	-0.275 ± 0.088
A35T	-0.066 ± 0.08
A35L	-0.289 ± 0.068
A35P	-0.826 ± 0.12
T53Y	0.276 ± 0.094
T53R	-0.111 ± 0.043
T53L	-0.09 ± 0.038
T53G	0.073 ± 0.049
Y60E	0.08 ± 0.062
Y60N	-0.236 ± 0.18
Y60F	0.068 ± 0.29
Y60Q	0.128 ± 0.069
A66W	-0.103 ± 0.067
A66F	-0.453 ± 0.08
A66N	0.135 ± 0.075
A66H	0.124 ± 0.088
A66C	-0.038 ± 0.11
K58V	0.03 ± 0.061
K58A	0.016 ± 0.045
K58C	-0.095 ± 0.075
K58S	-0.051 ± 0.066
W38H	-0.727 ± 0.45
W38G	-0.855 ± 0.12
W38P	-1.03 ± 0.22

Variant	abundance fitness
W38S	-0.863 ± 0.098
D39H	-0.065 ± 0.09
D39L	-0.224 ± 0.042
D39A	-0.026 ± 0.064
D39R	-0.016 ± 0.05
D39F	-0.167 ± 0.07
D39P	-0.829 ± 0.11
N22M	-0.437 ± 0.12
N22T	-0.293 ± 0.084
N22A	-0.476 ± 0.095
N22Q	-0.182 ± 0.073
A6I	-0.833 ± 0.37
A6W	-0.848 ± 0.13
A6G	-0.168 ± 0.079
A6P	0.054 ± 0.059
Y67G	0.263 ± 0.053
Y67Q	0.281 ± 0.17
Y67R	0.306 ± 0.063
Y67I	-0.012 ± 0.073
Y67N	0.288 ± 0.076
Y67H	0.155 ± 0.081
Y67T	0.274 ± 0.078
Y67V	0.323 ± 0.069
